Laboratory results from US20240294646A1.
Values belong to the substance of their own block, whether it stands above or below them.

What was measured:
[1] = target: FcγRIIb, soluble extracellular domain (UniProt P31994); assay: SPR; fold change in FcγRIIb affinity over WT v16463
[2] = target: FcγRIIb, soluble extracellular domain (UniProt P31994); assay: SPR; IIb-Fold/IIaR-Fold (FcγRIIb over FcγRIIaR, vs WT v16463)
[3] = target: FcγRIIb, soluble extracellular domain (UniProt P31994); assay: SPR (Biacore 4000, Protocol 2): antibody captured on immobilised HER2, soluble receptor as analyte
[4] = target: FcγRIIaR, soluble extracellular domain (UniProt P12318); assay: as above
[5] = target: FcγRIIb, soluble extracellular domain (UniProt P31994); assay: SPR; FcγRIIb affinity fold relative to control v27294
[6] = target: FcγRIIb, soluble extracellular domain (UniProt P31994); assay: SPR; IIb-Fold/IIaR-Fold relative to control v27294
[7] = target: FcγRIIaR, soluble extracellular domain (UniProt P12318); assay: SPR; fold change in FcγRIIaR affinity over WT v16463
[8] = target: FcγRIIaR, soluble extracellular domain (UniProt P12318); assay: SPR; FcγRIIaR affinity fold relative to control v27294
[9] = target: FcγRIIb, soluble extracellular domain (UniProt P31994); assay: SPR; fold change in affinity over control v27293 (Strategy 1 Launching Module)
[10] = target: FcγRIIaR, soluble extracellular domain (UniProt P12318); assay: as above
[11] = target: FcγRIIb, soluble extracellular domain (UniProt P31994); assay: SPR; IIb-Fold/IIaR-Fold (FcγRIIb against FcγRIIaR), relative to control v27293
[12] = target: FcγRIIb, soluble extracellular domain (UniProt P31994); assay: SPR; IIb-Fold/IIaR-Fold (FcγRIIb against FcγRIIaR), vs. wild-type v16463
[13] = target: FcγRIIb, soluble extracellular domain (UniProt P31994); assay: SPR; fold change in affinity over wild-type v16463
[14] = target: FcγRIIaR, soluble extracellular domain (UniProt P12318); assay: SPR; fold change in affinity over wild-type v16463
[15] = target: FcγRIIb, soluble extracellular domain (UniProt P31994); assay: SPR (General Methods Protocol 2): one-armed antibody captured on immobilised HER2, soluble receptor as analyte
[16] = target: FcγRIIaR, soluble extracellular domain (UniProt P12318); assay: as above
[17] = target: Soluble FcγRIIaR extracellular domain with C-terminal 10×His tag (UniProt P12318); assay: SPR; KD of WT v16463 / KD of variant
[18] = target: Soluble FcγRIIb extracellular domain with C-terminal 10×His tag (UniProt P31994); assay: SPR; KD of WT v16463 / KD of variant
[19] = target: Biotinylated FcγRIIb extracellular domain-Fc fusion (human) (UniProt P31994); assay: competition electrochemiluminescence (MSD), antibody on HER2-coated plate, biotinylated FcγRIIb-Fc; competitor FcγRIIaR-Fc at 10x
[20] = target: Soluble FcγRIIb extracellular domain with C-terminal 10×His tag (UniProt P31994); assay: SPR; IIb-Fold / IIaR-Fold (FcγRIIb against FcγRIIaR)
[21] = target: Soluble FcγRIIaR extracellular domain with C-terminal 10×His tag (UniProt P12318); assay: SPR (Biacore 4000), antibody captured on immobilised HER2, receptor as analyte
[22] = target: Soluble FcγRIIb extracellular domain with C-terminal 10×His tag (UniProt P31994); assay: as above
FcγRIIaR = FcγRIIaR (UniProt P12318); assay: SPR (Biacore 4000, Protocol 2), one-armed antibody captured on immobilised HER2, soluble FcγR as analyte
FcγRIIb = FcγRIIb (UniProt P31994); assay: as above

IIb-Fold [1]: 24.1 fold
IIb Selectivity [2]: 12.5 fold
Kd [3]: 60 nM
Kd [4]: 160 nM
IIb-Fold wrt Control [5]: 0.3 fold
IIb Selectivity Fold wrt Control [6]: 0.9 fold
IIaR-fold [7]: 1.9 fold
IIaR-Fold wrt Control [8]: 0.3 fold
Substance: Variant 26725 (A_D270K_strat2), one-armed trastuzumab antibody with heterodimeric IgG1 Fc

IIb-Fold vs. Control [9]: 1 fold
IIaR-Fold vs. Control [10]: 1 fold
IIb/IIaR Selectivity vs. Control [11]: 1 fold
IIb/IIaR Selectivity vs. WT [12]: 11.8 fold
IIb-Fold vs. WT [13]: 415 fold
IIaR-Fold vs. WT [14]: 35 fold
Kd [15]: 3.5 nM
Kd [16]: 8.8 nM
Substance: Variant 27293, Strategy 1 Launching Module 1 (A_G236N_G237A / B_G236D_G237F_S239D_S267V_H268D_Template 1), one-armed trastuzumab antibody

IIaR-fold [17]: 1.4 fold
IIb-Fold [18]: 112 fold
ELISA (% of non-competed FcγRIIb signal in presence of 10x FcγRIIa) [19]: 100%
IIb Selectivity [20]: 80.5 fold
Kd [21]: 220 nM
Kd [22]: 13 nM
Substance: v12, IIb-specific comparator with symmetrical E233D_G237D_P238D_H268D_P271G_A330R (antibody)

Kd (FcγRIIaR): 310 nM
Kd (FcγRIIb): 1400 nM
Substance: v16463, wild-type one-armed trastuzumab antibody (OAA format)
